B1: HDV Ribozyme (parent)
chain: GGCCGGCAUGGUCCCAGCCUCCUCGCUGGCGCCGGCUGGGCAACAUUCCGAGGGGACCGUCCCCUCGGUAAUGGCGAAUGGGACCCA

The series covers variants of B1. As to the kind of experiment: self-cleavage, relative activity (ratio to wild type); higher = more cleavage; co-transcriptional.
Regarding C26A C75U, the self-cleavage was 0.203.

With C26U G38U, the self-cleavage turned out to be 0.616.

On to U27A A70C, for which the self-cleavage stood at 0.782.

Turning to G25U G35A, the self-cleavage was 0.0415.

G25U C61A: the self-cleavage was 0.287.

For the variant C26U G74U, the self-cleavage is 0.777.

U27A C61G: the self-cleavage came out at 0.504.

Consider U27A C61U, for which the self-cleavage came to 0.997.

As for C26G A51C, the self-cleavage was determined as 1.13.

Turning to C24U G80C, the self-cleavage is 0.179.

As for C26A C62U, the self-cleavage worked out at 1.12.

As for C26G A87G, the self-cleavage was found to be 1.07.

Turning to C26G A87C, the self-cleavage was 1.02.

On to G25A U27A, for which the self-cleavage is 0.161.

Consider C26A G67U, for which the self-cleavage was determined as 1.04.

On to C26A G67C, for which the self-cleavage is 0.985.

With G25A C30U, the self-cleavage is 0.143.

Turning to G25U C48A, the self-cleavage was 0.332.

Consider C26U A56G, for which the self-cleavage was determined as 1.08.

On to C26G C33A, for which the self-cleavage came out at 0.298.

As to G25A G76C, the self-cleavage amounted to 0.217.

For the variant C26U G82C, the self-cleavage worked out at 0.431.

Regarding C26G U37G, the self-cleavage was 0.111.

Turning to C26G U37C, the self-cleavage turned out to be 1.01.

As for G25U U79A, the self-cleavage stood at 0.0875.

C26A C49U: the self-cleavage turned out to be 0.849.

As for C26G G54A, the self-cleavage was found to be 0.655.

As to G25C A78G, the self-cleavage was 0.

Consider C24U U47C, for which the self-cleavage came out at 0.739.

Turning to C26G G80C, the self-cleavage came to 0.212.

On to G25U G29A, for which the self-cleavage worked out at 0.0369.

Turning to C24U U60C, the self-cleavage stood at 0.752.

For C24U U60A, the self-cleavage was found to be 0.627.

With C26A G28A, the self-cleavage turned out to be 0.166.

Consider C24U G73U, for which the self-cleavage amounted to 0.122.

With U27A A87G, the self-cleavage came out at 0.847.

For the variant U27A A87U, the self-cleavage stood at 0.602.

Take C26A G74U: the self-cleavage amounted to 0.519.

Turning to C26A G74C, the self-cleavage turned out to be 0.237.

Take G25U C66G: the self-cleavage was 0.0354.

In the case of C24U U72G, the self-cleavage was 0.323.

Turning to C26A C64G, the self-cleavage was determined as 0.95.

Consider C26A G50A, for which the self-cleavage is 0.881.

In the case of G25A C64G, the self-cleavage is 0.13.

With G25A C64U, the self-cleavage came to 0.204.

With C26U A78C, the self-cleavage worked out at 0.35.

Take G25U C75A: the self-cleavage was found to be 0.0941.

Take G25U C75G: the self-cleavage was 0.128.

G25U A77C: the self-cleavage is 0.0504.

G25C C62U: the self-cleavage came to 0.145.

For the variant G25C C62G, the self-cleavage stood at 0.0615.

Consider G25A C62G, for which the self-cleavage came to 0.151.

As to G25A C62U, the self-cleavage was found to be 0.182.

On to G25A G29C, for which the self-cleavage is 0.0583.

For G25A G29U, the self-cleavage worked out at 0.0941.

In the case of C26G A70U, the self-cleavage came out at 0.875.

Take C26A G82A: the self-cleavage is 0.721.

Consider G25A A45C, for which the self-cleavage was determined as 0.227.

Take G25A A45U: the self-cleavage is 0.0489.

As for G25U G73U, the self-cleavage was 0.117.

Regarding G25U G73A, the self-cleavage was determined as 0.0923.

Regarding G25U G73C, the self-cleavage came out at 0.0415.

With G25U U65G, the self-cleavage is 0.269.

With G25C G68U, the self-cleavage was 0.161.

In the case of G25C G29U, the self-cleavage is 0.0773.

Consider C24U U79C, for which the self-cleavage came out at 0.161.

With C26G G34C, the self-cleavage amounted to 0.

G25U U69A: the self-cleavage stood at 0.196.

Turning to G25U U69C, the self-cleavage was determined as 0.229.

Regarding G25A A83U, the self-cleavage was determined as 0.0678.

Take C26U A42C: the self-cleavage was 0.308.

As for C26A C58A, the self-cleavage is 1.24.

In the case of C26A C58G, the self-cleavage is 1.09.

Turning to C26G G31C, the self-cleavage was 0.284.

Regarding C26G G31U, the self-cleavage turned out to be 0.48.

C26G G31A: the self-cleavage worked out at 0.744.

With G25C C75A, the self-cleavage was 0.

As to G25A A43U, the self-cleavage was 0.0437.

Consider G25C A83U, for which the self-cleavage is 0.0923.

Regarding G25C U47C, the self-cleavage was 0.

Turning to C26U U60A, the self-cleavage was determined as 1.05.

With C26U U60G, the self-cleavage turned out to be 0.831.

C26G A45C: the self-cleavage came to 0.364.

C26G A45G: the self-cleavage turned out to be 1.04.

With C26G A45U, the self-cleavage came out at 0.895.

For the variant C26U G34U, the self-cleavage stood at 0.767.

Turning to C26G G50A, the self-cleavage was determined as 0.923.

Turning to G25U C41U, the self-cleavage worked out at 0.188.

C26A C32G: the self-cleavage is 0.

Regarding G25C U37C, the self-cleavage is 0.0554.

In the case of C26A C36U, the self-cleavage was determined as 0.629.

As for C26G U60G, the self-cleavage stood at 0.525.

As for C26U U79G, the self-cleavage is 1.03.

For the variant C26U U79A, the self-cleavage worked out at 1.04.

As to G25C G52A, the self-cleavage was determined as 0.17.

For C26U C85G, the self-cleavage was determined as 1.22.

For C26U C85U, the self-cleavage was determined as 0.935.

In the case of C26U G73A, the self-cleavage was 0.747.

Turning to C26G C61U, the self-cleavage is 1.06.

Regarding C26G C61G, the self-cleavage came out at 0.811.

With G25C A51C, the self-cleavage was 0.128.

Regarding C26G U46G, the self-cleavage is 0.554.

C26A A78C: the self-cleavage came out at 0.284.

As to C26G G53U, the self-cleavage was 0.812.

Regarding C26G G76U, the self-cleavage is 0.916.

For C26U G31C, the self-cleavage stood at 0.542.

Consider C26U A83G, for which the self-cleavage amounted to 0.776.

Consider C26U A83U, for which the self-cleavage is 0.79.

Consider G25A G81A, for which the self-cleavage turned out to be 0.125.

For the variant G25U U37A, the self-cleavage came to 0.0831.

Turning to G25A C58A, the self-cleavage stood at 0.237.

On to G25A C58G, for which the self-cleavage was 0.111.

As for U27A C41U, the self-cleavage came out at 1.07.

In the case of U27A C30G, the self-cleavage was 0.166.

For G25U A71G, the self-cleavage was 0.101.

With C26G C84U, the self-cleavage was determined as 0.696.

Take U27A C57A: the self-cleavage was found to be 0.855.

For the variant C26U G52U, the self-cleavage was 0.956.

With C26U G52A, the self-cleavage amounted to 1.14.

As to U27A C49G, the self-cleavage came to 0.617.

G25A G50A: the self-cleavage was determined as 0.406.

Take G25A G50U: the self-cleavage came out at 0.242.

Regarding G25C C26G, the self-cleavage is 0.731.

Take G25C C26A: the self-cleavage is 0.196.

Consider G25U G31U, for which the self-cleavage stood at 0.0875.

For G25U G31C, the self-cleavage amounted to 0.101.

Turning to C26G A42G, the self-cleavage was found to be 0.639.

As to C26G A42C, the self-cleavage worked out at 0.158.

Regarding G25C G35U, the self-cleavage is 0.0692.

As to G25A G40U, the self-cleavage came to 0.161.

In the case of G25C C44G, the self-cleavage came to 0.101.

As for G25C C44A, the self-cleavage was 0.185.

Consider C26U G80U, for which the self-cleavage stood at 0.433.

Consider C26G G81U, for which the self-cleavage was 0.567.

For the variant G25A C44A, the self-cleavage stood at 0.

Regarding G25A C44U, the self-cleavage turned out to be 0.107.

In the case of G25U G76U, the self-cleavage turned out to be 0.389.

Regarding G25U G76A, the self-cleavage was determined as 0.

Turning to G25U G76C, the self-cleavage was 0.224.

In the case of C26U G40U, the self-cleavage amounted to 1.03.

Consider C24U U37A, for which the self-cleavage was 0.18.

For C24U U37C, the self-cleavage amounted to 0.753.

Take G25U U72C: the self-cleavage was 0.111.

As for G25U U72G, the self-cleavage was 0.181.

As to C26G C58U, the self-cleavage came out at 0.931.

As for G25A U37A, the self-cleavage was 0.213.

With G25A U37C, the self-cleavage is 0.141.

Regarding C26U U69G, the self-cleavage amounted to 0.96.

For C26G G39A, the self-cleavage was 0.18.

Consider G25U G54U, for which the self-cleavage was found to be 0.228.

Regarding G25C C36U, the self-cleavage turned out to be 0.0978.

With C26G G38A, the self-cleavage stood at 0.0978.

G25U G40C: the self-cleavage turned out to be 0.0297.

For the variant G25U G40U, the self-cleavage is 0.193.

In the case of C26U C66G, the self-cleavage was 0.861.

For the variant C26G C85U, the self-cleavage stood at 0.956.

G25A A42U: the self-cleavage is 0.

Take C26A G80U: the self-cleavage worked out at 0.398.

Consider C26A G80C, for which the self-cleavage was 0.348.

On to C26A G80A, for which the self-cleavage was 0.544.

For G25U C44U, the self-cleavage was found to be 0.119.

For G25U C44A, the self-cleavage is 0.0852.

G25A C86A: the self-cleavage worked out at 0.104.

As for G25A C86G, the self-cleavage worked out at 0.122.

As for C26G C62U, the self-cleavage was 1.09.

Regarding C26G C62A, the self-cleavage was determined as 0.985.

Take C26G C66A: the self-cleavage is 1.05.
